Experimental data taken from the supplement of paper PMC9170038.

What was measured:
[1] = tested on: MS2 coat protein; test: apparent KD of MS2 coat protein, switch ON state; designed switch direction (-1 OFF switch, 1 ON switch): -1; higher = weaker reporter binding; details: FMN input: 0 or 200 uM; Eterna round: R93 (includes R88 designs)
Method in brief: (§1)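 Designed RNA switches were transcribed on-chip from Illumina sequencing clusters and titrated with SNAP-549-labelled MS2 coat protein in twofold steps from 0.7 or 1.5 nM up to 3 µM. Each step lasted 0.8–1.5 h at first and 10–20 min by the end, in 100 mM Tris-HCl pH 7.5, 80 mM KCl and 4 mM MgCl2, without or with constant ligand. Apparent KD is the median, for each design, of fits to normalised cluster binding curves.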

[2] = tested on: MS2 coat protein; test: apparent KD of MS2 coat protein, switch OFF state (with FMN for OFF switches, without FMN for ON switches); designed switch direction (-1 OFF switch, 1 ON switch): -1; higher = weaker reporter binding; details: FMN input: 0 or 200 uM; Eterna round: R93 (includes R88 designs)
Method in brief: as §1

[3] = tested on: MS2 coat protein; test: apparent KD of MS2 coat protein; designed switch direction (-1 OFF switch, 1 ON switch): 1; higher = weaker reporter binding
Method in brief: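 Stalled E. coli RNA polymerase transcribed designed RNA switches on Illumina chips, which were then titrated with SNAP-549-labelled MS2 coat protein, doubling from 0.7 or 1.5 nM to 3 µM. Steps lasted from 0.8–1.5 h at the lowest concentration to 10–20 min at the highest. The apparent KD is each design's median over clusters of curve-fitted normalised fluorescence.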

[4] = input ligand: microRNA oligo, concentration not stated
[5] = Eterna round: R95, input ligand: FMN 200 uM
[6] = Eterna round: R95, input ligand: microRNA oligo, concentration not stated
[7] = Eterna round: R95, input ligand: none

Row | Sequence | apparent KD of MS2 coat protein [1] | apparent KD of MS2 coat protein [2] | also measured
1 | AAAAAACAUGAGGAUCACCCAUGUAAGGAUAUCGGAAAAGGAAAAAUAAAAAAGAAGACGAGAAGGUACACCAA [Mat - Exclusion 1 - Eli mod - D78] | 25.8 nM | 24 nM | 
2 | AAAAAACAUGAGGAUCACCCAUGUAAGGAUAUCGUGCAGAAAAAAAAAAAAAACUGCACGAGAAGGUACUUGGA [Brourd - Exclusion 1 - Sub 3] | 43.1 nM | 87.9 nM | 
3 | AAAAAACAUGAGGAUCACCCAUGUAAGGAUAUGCAAAACCCAUAUAAAAAGGGAAAAAGCAGAAGGUACAAAAA [Starry Exclusion 1.1 (wbt round 1 mod)] | 24.9 nM | 33.1 nM | 
4 | AAAAAACAUGAGGAUCACCCAUGUAAGGAUAUGCUAAAAAACACGGAAAAACGUGAUAGCAGAAGGUACAAAAA [66%, Wbt, 31] | 22.6 nM | 33.4 nM | 
5 | AAAAAACAUGAGGAUCACCCAUGUCAGGAUAUCCGGUUAAAAAAAAAAAAAAGGCGUUGGAGAAGGGACAUUCC [Chica Displaced 9 - Jieux - Exclusion 1] | 25.7 nM | 33.4 nM | 
6 | AAAAAACAUGAGGAUCACCCAUGUCAGGAUAUCCUAAAGAAACUCGUAAAAAGAAAUAGGAGAAGGGACAAAAA [PK4] | 53.7 nM | 46.7 nM | 
7 | AAAAAACAUGAGGAUCACCCAUGUCAGGAUAUCUGGAGAAACGGAAAGAAAAAGAAACGGAGAAGGGACAUAAA [Starryjess mod] | 29.6 nM | 28.5 nM | 
8 | AAAAAACAUGAGGAUCACCCAUGUGAGGAUAUCCAAAACAAAAAAAAACAAAACAAAAGGAGAAGGCACAUAAA [Amethyst 54] | 58.8 nM | 43.1 nM | 
9 | AAAAAACAUGAGGAUCACCCAUGUGAGGAUAUCCAAAAGUCAAAGAAAAAGACGAAAAGGAGAAGGCACAAAAA [Banishment 2 - Jieux - Exclusion 1] | 44.2 nM | 49.1 nM | 
10 | AAAAAACAUGAGGAUCACCCAUGUGAGGAUAUCCAGAAGGGAAUAAAAUAACACGAAAGGAGAAGGCGCAAAAA [Ex 1 May 35] | 35.8 nM | 31.1 nM | 
11 | AAAAAACAUGAGGAUCACCCAUGUGAGGAUAUGCAAAAAAAAAAAAAAAAAUAAAAAAGCAGAAGGCACAAAAA [Sh'dynasty] | 30.6 nM | 33.2 nM | 
12 | AAAAAACAUGAGGAUCACCCAUGUGAGGAUAUUCAAAAAAAAAAAAAAAACACAAGAAGGAGAAGGCACAAAAA [Default title] | 29.6 nM | 73 nM | 
13 | AAAAACGGAGGAUAUGCAAAAAAAAAAAAAAAAAAAAAAAAACAUGAGGAUCACCCAUGUAGAAGGCCGAAAAA [Diamond] | 25.6 nM | 36.9 nM | 
14 | AAAAACGUAGGAUAUACAUGAAAAAAAAAAAAAAAAAAAAGACAUGAGGAUCACCCAUGUAGAAGGGCGAAAAA [water's exclusion 2] | 91.9 nM | 76.8 nM | 
15 | AAAAAGAAAGGAUAUACGAACAUGUCAAAAGACGUGAAGGGACAUGAGGAUCACCCAUGUAGAAGGUUCAAAAA [JL Half Open 22] | 35.8 nM | 17.1 nM | 
16 | AAAAAGCGAGGAUAUACAUAGCUAAGACGUGUGAGCGAAAAACAUGAGGAUCACCCAUGUAGAAGGCGCAAAAA [Exclusion2-03] | 18.2 nM | 16.9 nM | 
17 | AAAAAGGAAGGAUAUACGAACAUGUCAAAAGACGUGAAGGGACAUGAGGAUCACCCAUGUAGAAGGUCUAAAAA [JL Half Open 26] | 32.4 nM | 22.9 nM | 
18 | AAAAAGGCAGGAUAUGCAUACCCACGAAAAAAAACGCUGGGACAUGAGGAUCACCCAUGUAGAAGGGCCAAAAA [Dora Explored 11 - Jieux - Exclusion 2] | 54 nM | 28.2 nM | 

Row | Sequence | apparent KD of MS2 coat protein [1] | apparent KD of MS2 coat protein [2] | also measured
19 | AAAAAGGUAGGAUAUACGAAAAAAAAGGGUAGAAAAAAAACACAUGAGGAUCACCCAUGUAGAAGGACCAAAAA [Ex 2 sub 1] | 26.3 nM | 77.4 nM | 
20 | AAAAAGUAAGGAUAUGCGAAUAAAUAAGAAGAAGAAAGAAAGCAGAAGGUACAUGAGGAUCACCCAUGUAAAAA [Ex 4 Tesla 1] | 36.3 nM | 22.5 nM | 
21 | AAAAAGUCAGGAUAUAGCAAAGGUCACGAAAGUGACAAAGGCUAGAAGGGACAUGAGGAUCACCCAUGUAAAAA [Fiskers Exclusion 4 D2] | 53 nM | 38.8 nM | 
22 | UUGCGGGCUUGAGGAUAUUGAGUACAUAUGUUUAACAUGAGGAUCACCCAUGUGGGUUGCGGUAUCGAGAAGGUAACUUCCUGC [salish99_SSNG2_r04_811] (Eterna round: R96, puzzle: Same State NG 2) |  |  | apparent KD of MS2 coat protein ([3]; input ligand: FMN 200 uM): 100 nM; apparent KD of MS2 coat protein [3, 4]: 65.3 nM; apparent KD of MS2 coat protein ([3]; input ligand: none): 91.1 nM
23 | UUGCUCGUGUAAGGAUAUGCAGCCGUUUCGGCUGCAGAAGGUACUAUAAUACAUGAGGAUCACCCAUGUCUCUAUUAUUUAGUG [salish99_SSNG1_r04_925] (Eterna round: R96, puzzle: Same State NG 1) |  |  | apparent KD of MS2 coat protein ([3]; input ligand: FMN 200 uM): 43 nM; apparent KD of MS2 coat protein [3, 4]: 38.3 nM; apparent KD of MS2 coat protein ([3]; input ligand: none): 49.4 nM
24 | UUGCUCGUGUGAGGAUAUGCCGCCGUUUCGGCUGCAGAAGGUACUCUGUUACAUGAGGAUCACCCAUGUCUCUGUUGUUUCGUG [salish99_SSNG1_r04_939] (Eterna round: R96, puzzle: Same State NG 1) |  |  | apparent KD of MS2 coat protein [3, 4]: 34.7 nM
25 | UUGGUGUAGAUACAGGAUAUGUUGCUUGUAACAUGAGGAUCACCCAUGUAUCUAUGAGAUUAAAUGCAGAAGGGUGCACAUCACU [salish99_ss2_r3_089] (puzzle: Same State 2) |  |  | apparent KD of MS2 coat protein [3, 5]: 390 nM; apparent KD of MS2 coat protein [3, 6]: 582 nM; apparent KD of MS2 coat protein [3, 7]: 1020 nM
26 | UUGUUUUGAAAUUAACAUGAGGAUCACCCAUGUCUUGACACAGAGGAUAUACAUGUUUGUUUGUAGUAGAAGGCUGUUUAUUGU [JR_SSNG3_Sub097] (Eterna round: R96, puzzle: Same State NG 3) |  |  | apparent KD of MS2 coat protein ([3]; input ligand: FMN 200 uM): 57 nM; apparent KD of MS2 coat protein [3, 4]: 98 nM; apparent KD of MS2 coat protein ([3]; input ligand: none): 135 nM
27 | UUUAGAUUCAGAGGAUAUUGAUGUUGUAUUUUACAAGAAGGCUGAUUGGUUUGAAUUGUUUUUUAACAUGAGGAUCACCCAUGU [JR_SSNG1_Sub011] (Eterna round: R96, puzzle: Same State NG 1) |  |  | apparent KD of MS2 coat protein [3, 4]: 19.2 nM
28 | UUUAGUAGCGGGCAGGAUAUGUAUUAAAAUACAUGAGGAUCACCCAUGUGCGGGUAUAACACCCGACAGAAGGGCCAAUCGCUAC [Laonerce - 8] (puzzle: Same State 2) |  |  | apparent KD of MS2 coat protein [3, 5]: 22.3 nM; apparent KD of MS2 coat protein [3, 6]: 162 nM; apparent KD of MS2 coat protein [3, 7]: 237 nM
29 | UUUAGUGGCGGGCAGGAUAUGUAUUAAAAUACAUGAGGAUCACCCAUGUGCGGGUAUAACACCCGACAGAAGGGCCAAUCGCUAC [Laonerce - 7] (puzzle: Same State 2) |  |  | apparent KD of MS2 coat protein [3, 5]: 20.9 nM; apparent KD of MS2 coat protein [3, 6]: 275 nM; apparent KD of MS2 coat protein [3, 7]: 397 nM
30 | UUUAGUUGCGGGCAGGAUAUGUAUUAAAAUACAUGAGGAUCACCCAUGUACGGGUAUAACACCCGACAGAAGGGCCAAUCGCGAC [Laonerce - 4] (puzzle: Same State 2) |  |  | apparent KD of MS2 coat protein [3, 5]: 16.8 nM; apparent KD of MS2 coat protein [3, 6]: 62.6 nM; apparent KD of MS2 coat protein [3, 7]: 91.5 nM
31 | UUUAUACAUGAGGAUCACCCAUGUCAAUGUAGUCGAGGAUAUGGGCAGCUGUGAGGCGUACUAGAAGGCGAAGAGG [JL-ss1-3.09 ViennaUCT mod] (puzzle: Same State 1) |  |  | apparent KD of MS2 coat protein [3, 5]: 103 nM; apparent KD of MS2 coat protein [3, 6]: 378 nM; apparent KD of MS2 coat protein [3, 7]: 579 nM
32 | UUUAUAUUCAGAGGAUAUUGAUGUUGUAUUUUACAAGAAGGCUGAUUGUUUUGUAAUGUUAUUAUACAUGAGGAUCACCCAUGU [JR_SSNG1_Sub014] (Eterna round: R96, puzzle: Same State NG 1) |  |  | apparent KD of MS2 coat protein [3, 4]: 17.3 nM
33 | UUUCGAUAGAUAGGAUAUCACCUUACAUGAGGAUCACCCAUGUUGGCCGUGCUGGUUAUUCAUACUGAGAAGGAUCUUGAUGAC [JR_SSNG2_Sub004] (Eterna round: R96, puzzle: Same State NG 2) |  |  | apparent KD of MS2 coat protein ([3]; input ligand: FMN 200 uM): 39.4 nM; apparent KD of MS2 coat protein [3, 4]: 37 nM; apparent KD of MS2 coat protein ([3]; input ligand: none): 45 nM
34 | UUUCUUCUCGUAGGAUAUGUAGGAUAUGCCUACAUGAGGAUCACCCAUGUUCGCAUGGCAGAAGGACAGAAGGACGAUCACCCU [pwkr ssNG2 2FMN + 1F5.9] (Eterna round: R96, puzzle: Same State NG 2) |  |  | apparent KD of MS2 coat protein ([3]; input ligand: FMN 200 uM): 55.4 nM; apparent KD of MS2 coat protein [3, 4]: 234 nM; apparent KD of MS2 coat protein ([3]; input ligand: none): 502 nM
35 | UUUGAAUUGCAAGGAUAUCUUAUUUAGAUUUUAAGAGAAGGUGCUUUAUAGUUACAUGAGGAUCACCCAUGUAUUUCUUUUUAU [JR_SSNG1_Sub062] (Eterna round: R96, puzzle: Same State NG 1) |  |  | apparent KD of MS2 coat protein [3, 4]: 18.5 nM
36 | UUUGAAUUGCAAGGAUAUUGAUAACAUGAGGAUCACCCAUGUAAUUGUUCGAGUUAGAUUAGUUACAAGAAGGUGCUAUUGUUU [JR_SSNG2_Sub039] (Eterna round: R96, puzzle: Same State NG 2) |  |  | apparent KD of MS2 coat protein ([3]; input ligand: FMN 200 uM): 385 nM; apparent KD of MS2 coat protein [3, 4]: 165 nM; apparent KD of MS2 coat protein ([3]; input ligand: none): 287 nM
